The text below walks through data of patent publication US20090291088A1 (Biogen, published 2009).

A value given as a limit tells only on which side of the number the result lay.

Assay [1] deals with T1, Rhesus IGF-1R expressed on CHO cells (rhesus monkey, UniProt I2CWY3 31-1367).
T1 construct: whole, on cells; also called Rhesus IGF-1R/CHO
The assay is described as follows: binding to CHO transfectants.

Assay [2] deals with cynomolgus IGF-1R expressed on cells (cynomolgus macaque, UniProt G7P9I7 31-1343). The assay is described as follows: binding to CHO transfectants.
The target in assay [3] is T2, human IGF-1R(1-903)-Fc (human, UniProt P08069 31-933).
T2 construct: Made by Biogen Idec; Multimerises through IGF-1R and Fc; also called hIGF-1R-Fc; IGF-1R-Fc; not shown: C-terminal human IgG1-Fc tag
The assay can be described thus: ELISA, plate coated with soluble IGF-1 receptor Fc fusion protein, detection with anti-human kappa-HRP. Here is the method: The plate was washed with phosphate-buffered saline (PBS, Irvine Scientific, Cat#9240), pH 7.4 plus 0.025% Tween 20 in the Skan Washer 300 (Skatron Instruments), blocked with buffer containing 1% nonfat milk, 0.05% Tween 20 in PBS, pH 7.4, and then incubated at room temperature for 1 hour. After incubation plate was washed with PBS plus 0.025% Tween 20 in the Skan Washer 300. […] Following a one hour incubation at room temperature, plate was washed with PBS plus 0.025% Tween 20 in the Skan Washer 300. […] Plate incubated for 1 hour at room temperature was washed with PBS plus 0.025% Tween 20 in the Skan Washer 300. […] The absorbance was measured at 450 nm, background 540 nm for TMB using the Molecular Devices plate reader. Data was analyzed using the SOFTMAX PRO software package version 4.3 LS (Molecular Devices Corp.).

In assay [4] the target is T3, rat IGF-1R expressed on immune cells (rat, UniProt P24062 31-1370).
T3 construct: whole, on cells
T3 sequence (P24062 31-1370): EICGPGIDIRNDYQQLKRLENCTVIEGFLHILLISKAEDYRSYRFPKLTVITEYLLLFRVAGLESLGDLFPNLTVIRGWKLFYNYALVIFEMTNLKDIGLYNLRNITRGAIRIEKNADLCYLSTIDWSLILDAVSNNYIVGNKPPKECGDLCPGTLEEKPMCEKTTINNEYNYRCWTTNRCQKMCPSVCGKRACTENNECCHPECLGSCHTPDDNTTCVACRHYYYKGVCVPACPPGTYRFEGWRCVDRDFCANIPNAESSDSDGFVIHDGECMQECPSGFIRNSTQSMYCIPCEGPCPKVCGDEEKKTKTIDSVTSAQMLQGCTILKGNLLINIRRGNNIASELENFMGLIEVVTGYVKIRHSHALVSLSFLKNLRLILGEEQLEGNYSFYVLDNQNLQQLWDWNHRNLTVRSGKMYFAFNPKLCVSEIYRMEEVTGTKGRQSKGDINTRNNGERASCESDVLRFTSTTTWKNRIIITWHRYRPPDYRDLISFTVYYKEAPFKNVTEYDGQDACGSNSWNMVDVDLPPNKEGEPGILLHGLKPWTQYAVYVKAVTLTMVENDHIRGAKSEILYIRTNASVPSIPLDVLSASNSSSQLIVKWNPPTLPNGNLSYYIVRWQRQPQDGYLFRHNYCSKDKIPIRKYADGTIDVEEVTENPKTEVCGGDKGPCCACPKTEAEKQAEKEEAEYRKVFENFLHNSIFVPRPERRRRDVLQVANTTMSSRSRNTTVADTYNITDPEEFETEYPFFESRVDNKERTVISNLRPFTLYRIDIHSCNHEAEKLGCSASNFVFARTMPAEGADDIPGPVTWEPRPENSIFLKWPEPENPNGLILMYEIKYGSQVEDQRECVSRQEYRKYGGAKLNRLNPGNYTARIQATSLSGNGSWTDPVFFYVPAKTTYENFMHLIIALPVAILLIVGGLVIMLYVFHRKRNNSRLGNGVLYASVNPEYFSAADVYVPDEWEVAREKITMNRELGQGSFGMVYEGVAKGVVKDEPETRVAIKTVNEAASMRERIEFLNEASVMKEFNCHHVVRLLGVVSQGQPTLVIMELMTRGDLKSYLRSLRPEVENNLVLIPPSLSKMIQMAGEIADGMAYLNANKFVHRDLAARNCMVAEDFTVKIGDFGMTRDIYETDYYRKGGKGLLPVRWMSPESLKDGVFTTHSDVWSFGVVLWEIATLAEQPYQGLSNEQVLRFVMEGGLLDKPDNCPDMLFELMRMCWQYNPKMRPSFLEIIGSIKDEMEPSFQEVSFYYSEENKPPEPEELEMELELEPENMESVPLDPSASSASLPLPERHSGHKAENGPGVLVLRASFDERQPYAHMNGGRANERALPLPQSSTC
The assay can be described thus: FACS on granulocytes, monocytes, lymphocytes.

The target in assay [5] is T4, IGF-1R (soluble, construct not stated) (human, UniProt P08069 31-932, limits assumed).
T4 construct: whole entry named; also called Solube IGF-1R Protein; soluble recombinant human IGF-1R
The assay is described as follows: ligand blocking, competitor IGF-2; IGF-2 as the blocked ligand.

In assay [6] the target is T5, human IGF-1R expressed on cells (human, UniProt P08069 31-1367). The assay can be described thus: cell-based or functional assay.
In assay [7] the target is T4, IGF-1R (soluble, construct not stated …). The assay can be described thus: binding to soluble IGF-1R protein.
For assay [8] the target is unchanged. The assay can be described thus: ligand blocking, competitor IGF-1; IGF-1 as the blocked ligand.
Assay [9] concerns the target T2, human IGF-1R(1-903)-Fc. The assay can be described thus: competition ELISA: biotinylated hIGF-1R-Fc on streptavidin plate, 320 nM human IGF-2 His, detection with anti-His-HRP; blocked ligand human IGF-2 His. On the technique in general: An ELISA detects its analyte on a solid surface through an enzyme-linked reagent.
Assay [10] concerns the target T6, human IGF-1R(1-902)-His10 (human, UniProt P08069 31-932).
T6 construct: Cy5-labelled in tr-FRET; also called hIGF-1R-His10; IGF-1R-His
The assay can be described thus: SPR, antibody over captured IGF-1R-10His. On the procedure: (§1) All surface plasmon resonance (SPR) experiments were performed on a Biacore 3000 set to 25° C. using HBS-EP (Biacore, Cat. No. BR-1001-88) as the running buffer. A biotin-labeled anti-HisTag antibody (biotin-PENTA-His, Qiagen Cat. No. 34440) was immobilized to saturation on a Biacore SA chip (Cat. No. BR-1000-32) surface by injection at 500 nM in HBS-EP buffer. […] Subsequent to IGF-1R injections, flow rates were increased to 20 μL/min. A second, 130 μL injection of anti-IGF-1R antibody or Fab was performed to investigate interactions with the receptor. Each antibody and Fab was serially diluted from 64 nM to 0.5 nM to obtain concentration dependent kinetic binding curves. Each injection series was regenerated using 3×10 μL injections of 10 mM Acetate, pH 4.0, at 20 μL/min. Each curve was double referenced using (1) data obtained from a streptavidin surface devoid of IGF-1R and (2) data from a primary injection of IGF-1R followed by a secondary injection of HBS-EP buffer. The concentration series for each antibody and Fab was fit to the 1:1 binding model provided within the BiaEvaluation software of the manufacturer.
(§2) The rates at which the antibodies accumulate on the IGF-1R coated surface when applied at various concentrations as well as the rates at which they dissociated during applications of pure buffer were investigated by fitting the data to a 1:1 binding model. Approximate kinetic rate constants and equilibrium dissociation constant were calculated (Table 14).
Background: Surface plasmon resonance follows binding to a sensor surface in real time, without labels.

In assay [11] the target is T5, human IGF-1R expressed on cells. The assay is described as follows: binding to tumor cells.
Another assay addresses T7, human INSR(28-956)-His10 (human, UniProt P06213 28-956).
T7 construct: range 28-956; Bought (R&D Systems 1544-IR); also called rh-INSR; soluble insulin receptor
The assay is described as follows: SPR, INSR over immobilised antibody.

Assay [12] deals with T8, human insulin receptor expressed in mammalian cells (UniProt P06213 28-1382, limits assumed).
T8 construct: whole, on cells; Cells were solubilised with Triton X-100 before immunoprecipitation; also called INSR; IR
The assay is described as follows: immunoprecipitation from IR CHO lysate, western blot with mouse anti-human IR. On the procedure:
Recombinant IGF-1R and insulin receptor (IR) were independently expressed in mammalian cells (3T3 or CHO). […] Antibody/antigen complexes were released from the beads by acid treatment, applied to Tris-Glycine SDS-PAGE gels and blotted to nitrocellulose membranes. Detection was performed using mouse anti-human IR (FIG. 24A) or mouse anti-human IGF-1R (FIG. 24B) and goat α-mouse IgG.
(In general: A western blot detects proteins with antibodies after separation by electrophoresis.)

Assay [13] concerns the target T2, human IGF-1R(1-903)-Fc. The assay can be described thus: competition ELISA: biotinylated hIGF-1R-Fc on streptavidin plate, 320 nM human IGF-1 His, detection with anti-His-HRP; blocked ligand human IGF-1 His. Here is the method: hIGF-1R-Fc was biotinylated using EZ-Link Sulfo-NHS-LC-Biotin according to the protocol provided by the manufacturer (Pierce Cat. No. 21335). Biotinylated human IGF-1R-Fc at 5 μg/ml was added to the wells of SigmaScreen streptavidin-coated 96-well plates (Sigma, Cat. No. M5432-5EA; Sigma-Aldrich Corp. (St. Louis, Mo., USA)) at 100 μL/well and incubated overnight at 2-8° C. The plates were then washed four times with 200 μL/well PBST. […] The dilutions were added to the plates in duplicate at 100 μL/well and the plates were incubated at RT for 1 hour. The plates were then washed four times with 200 μL/well PBST. An HRP-conjugated anti-Histag antibody (Penta-His HRP Conjugate, QIAGEN, Cat. No. 1014992) was diluted 1:1000 in PBST and added to plates at 100 μL/well, and the plates were incubated at RT for one hour. The plates were then washed four times with 200 μL/well PBST. SureBlue Reserve TMB Microwell Peroxidase Substrate (KPL, Cat. No. 53-00-01) was added to plates at 100 μL/well followed by 1% phosphoric acid at 100 μL/well once the desired reaction was observed. The absorbance of each well was determined at 450 nm, and the results were normalized and plotted against the log of antibody concentration.

For assay [14], the target named is T6, human IGF-1R(1-902)-His10. The assay is described as follows: SPR, antibody over IGF-1R-10His captured by anti-His, 1:1 model, approximate. Here is the method:
as §1, with “The concentration series for each antibody and Fab was fit to the 1:1 binding model provided within the BiaEvaluation software of the manufacturer.” left out
as §2

The target in assay [15] is T2, human IGF-1R(1-903)-Fc. The assay can be described thus: ELISA on hIGF-1R-Fc, competitor biotinylated M13-C06.

T1 sequence (I2CWY3 entry or part of it): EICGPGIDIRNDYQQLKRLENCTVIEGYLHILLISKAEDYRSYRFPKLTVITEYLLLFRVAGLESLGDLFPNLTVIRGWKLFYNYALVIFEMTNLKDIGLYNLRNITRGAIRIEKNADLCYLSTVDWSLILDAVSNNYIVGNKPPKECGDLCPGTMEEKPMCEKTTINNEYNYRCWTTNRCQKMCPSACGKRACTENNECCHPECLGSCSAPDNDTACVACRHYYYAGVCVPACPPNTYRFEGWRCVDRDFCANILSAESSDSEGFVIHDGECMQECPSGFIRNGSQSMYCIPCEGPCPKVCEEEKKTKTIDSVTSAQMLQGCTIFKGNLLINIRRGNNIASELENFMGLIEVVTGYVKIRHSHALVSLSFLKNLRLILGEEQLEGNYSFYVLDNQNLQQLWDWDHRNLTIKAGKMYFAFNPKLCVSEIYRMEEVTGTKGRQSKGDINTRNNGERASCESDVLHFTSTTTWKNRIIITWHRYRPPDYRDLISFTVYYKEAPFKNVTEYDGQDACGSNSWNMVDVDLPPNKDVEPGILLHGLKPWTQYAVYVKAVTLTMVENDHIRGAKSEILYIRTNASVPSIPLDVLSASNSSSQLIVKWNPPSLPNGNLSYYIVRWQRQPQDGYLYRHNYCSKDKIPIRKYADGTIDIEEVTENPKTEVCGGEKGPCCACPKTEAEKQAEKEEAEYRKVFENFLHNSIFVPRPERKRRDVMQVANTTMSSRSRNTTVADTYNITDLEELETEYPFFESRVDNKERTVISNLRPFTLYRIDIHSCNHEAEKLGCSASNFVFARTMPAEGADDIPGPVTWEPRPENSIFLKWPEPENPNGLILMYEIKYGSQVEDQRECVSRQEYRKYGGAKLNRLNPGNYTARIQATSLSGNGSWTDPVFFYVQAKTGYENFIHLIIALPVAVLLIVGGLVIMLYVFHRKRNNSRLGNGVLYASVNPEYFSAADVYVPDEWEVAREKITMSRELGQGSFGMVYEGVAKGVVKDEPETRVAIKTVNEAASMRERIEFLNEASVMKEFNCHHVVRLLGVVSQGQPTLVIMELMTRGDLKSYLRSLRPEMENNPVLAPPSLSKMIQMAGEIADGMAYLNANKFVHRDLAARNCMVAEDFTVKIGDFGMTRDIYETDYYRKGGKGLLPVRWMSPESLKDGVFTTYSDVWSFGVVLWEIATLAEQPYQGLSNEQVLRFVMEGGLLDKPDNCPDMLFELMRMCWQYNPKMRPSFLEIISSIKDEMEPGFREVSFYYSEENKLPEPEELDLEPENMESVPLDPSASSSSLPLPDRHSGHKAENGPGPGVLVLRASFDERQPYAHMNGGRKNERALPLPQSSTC

B1: M13-C06.G4.P.agly (antibody, human IgG4 S228P, kappa, V domains shown)
VH: EVQLLESGGGLVQPGGSLRLSCAASGFTFSIYRMQWVRQAPGKGLEWVSGISPSGGTTWYADSVKGRFTISRDNSKNTLYLQMNSLRAEDTAVYYCARWSGGSGYAFDIWGQGTMVTVSS
VL: DIQMTQSPLSLSASVGDRVTITCQASRDIRNYLNWYQQKPGKAPKLLIYDASSLQTGVPSRFGGSGSGTDFSFTIGSLQPEDIATYYCQQFDSLPHTFGQGTKLEIKR
notes: Full-length human aglycosylated IgG4.P (S228P/T299A, EU), kappa; Places that say only 'M13-C06 antibody' were assigned to this version; Labelled with Eu chelate or biotin in some assays; also called M13-C06_Ab; Eu-C06
B1: the EC50 – broadly, the concentration needed to bring the measured effect to its halfway point – in assay [1] came to 270 pM; in [2] it was 470 pM; in [7] it was 42.2 pM; in assay [11] it was 220 pM. In addition, the EC50 (read off the curve) (usually the concentration giving half of the maximal effect) with human IGF-1R(1-903)-Fc [3] is about 40 pM. Moreover, the binding result in assay [4] is “no binding”; with human INSR(28-956)-His10, “no binding (tested: 2 µM)”; in [12] it was “no binding”. The IC50 (usually the concentration that gives 50% inhibition) in [5] was 525 pM; in assay [8], 979 pM. For the same molecule, the “inhibition of IGF-1 and IGF-2 mediated IGF-1R receptor phosphorylation (EC50)” value in assay [6] was under 1000 pM. Moreover, the “IC50 (read off the curve)” value in the assay with human IGF-1R(1-903)-Fc [9] and with human IGF-1R(1-903)-Fc [13] was about 1000 pM throughout. Further, in [10], the koff (commonly a measure of how fast the partners let go of each other) turned out to be 0.00025 s⁻¹. Besides, in [10], the kon – broadly, a measure of how fast the partners come together – worked out at 1.8e+06 M⁻¹ s⁻¹. The Kd – broadly, the equilibrium constant for the complex coming apart – in assay [14] amounted to 130 pM. Further, the “percent competition (relative to self-competition)” value in the assay with human IGF-1R(1-903)-Fc [15] was in the range of 90 to 100%.
